Laboratory results as given in article PMC4117747, “The N-terminus of Mcm10 is important for interaction with the 9-1-1 clamp and in resistance to DNA damage” (Nucleic Acids Research, 2014).

Target: T1, Mcm10Δ150 (LexA fusion) (S. cerevisiae, UniProt P32354 151-571)
T1 construct: Mcm10, budding yeast, first 150 amino acids deleted; also called pBTM116-LEXA-mcm10Δ150; LexA-tagged Mcm10Δ150; source: yeast two-hybrid fusion (pBTM116); also overexpressed from the ADH1 promoter in yeast, in whole cell extract, for Co-IP
T1 sequence (looked up): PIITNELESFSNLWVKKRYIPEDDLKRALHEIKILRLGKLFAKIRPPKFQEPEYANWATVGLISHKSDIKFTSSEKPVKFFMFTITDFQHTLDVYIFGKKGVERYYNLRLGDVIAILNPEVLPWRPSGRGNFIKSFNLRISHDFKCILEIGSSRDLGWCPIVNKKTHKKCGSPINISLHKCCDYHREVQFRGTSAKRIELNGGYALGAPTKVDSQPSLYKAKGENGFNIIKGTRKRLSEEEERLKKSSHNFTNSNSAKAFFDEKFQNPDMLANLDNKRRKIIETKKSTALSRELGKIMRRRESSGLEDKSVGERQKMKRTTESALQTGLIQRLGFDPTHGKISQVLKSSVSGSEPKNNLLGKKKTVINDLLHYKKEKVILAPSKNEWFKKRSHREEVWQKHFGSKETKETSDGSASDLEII
Test: two-hybrid; yeast two-hybrid with pBTM116 (LexA) and pACT2 fusions; β-galactosidase activity in cell extracts, in triplicate from at least three clones
Details: partners not purified

B1: Mcm10 (LexA fusion, wild type) (natural protein, S. cerevisiae, UniProt P32354 1-571, looked up)
chain: MNDPREILAVDPYNNITSDEEDEQAIARELEFMERKRQALVERLKRKQEFKKPQDPNFEAIEVPQSPTKNRVKVGSHNATQQGTKFEGSNINEVRLSQLQQQPKPPASTTTYFMEKFQNAKKNEDKQIAKFESMMNARVHTFSTDEKKYVPIITNELESFSNLWVKKRYIPEDDLKRALHEIKILRLGKLFAKIRPPKFQEPEYANWATVGLISHKSDIKFTSSEKPVKFFMFTITDFQHTLDVYIFGKKGVERYYNLRLGDVIAILNPEVLPWRPSGRGNFIKSFNLRISHDFKCILEIGSSRDLGWCPIVNKKTHKKCGSPINISLHKCCDYHREVQFRGTSAKRIELNGGYALGAPTKVDSQPSLYKAKGENGFNIIKGTRKRLSEEEERLKKSSHNFTNSNSAKAFFDEKFQNPDMLANLDNKRRKIIETKKSTALSRELGKIMRRRESSGLEDKSVGERQKMKRTTESALQTGLIQRLGFDPTHGKISQVLKSSVSGSEPKNNLLGKKKTVINDLLHYKKEKVILAPSKNEWFKKRSHREEVWQKHFGSKETKETSDGSASDLEII
notes: Mcm10, budding yeast, called full-length in the Co-IP with LexA-tagged constructs; also called LexA-tagged Mcm10; full-length Mcm10; source: yeast two-hybrid fusion (pBTM116); also overexpressed in yeast, in whole cell extract, for Co-IP
Question: Which “reduction of binding relative to wild-type Mcm10” value does the source give for B1 here?
Answer: ~85%
